Test system: Bacillus subtilis
Assay: cleaved RNA product abundance (RNA/gDNA barcode ratio) relative to median wild-type variant (ratio to wild type); higher = more accumulation of the downstream cleavage product
Conditions: cleavage site: cggR-gapA (positions -7 to +36 mutated)
Procedure, shortened: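 Cleaved product abundance for each construct is its RNA-to-gDNA barcode ratio, scaled to the median construct carrying the unmutated site. Cleaved RNA was isolated on a gel, reverse transcribed and barcode-sequenced, with genomic DNA barcodes sequenced alongside and UMIs collapsed. The reporters were truncated aprE or tetM mRNAs with barcoded, mutagenized RNase Y cleavage-site windows integrated into the B. subtilis chromosome, and cultures grew in LB at 37°C from OD600 0.0003 to 0.3.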

[1] = experiment (reporter, strain, medium): exp 2b: truncated aprE reporter, strain BJT200
[2] = experiment (reporter, strain, medium): exp 4a: truncated aprE reporter, strain BJT201 with 2% xylose (RNase J1 expressed)

| Sequence | cleaved RNA product abundance [1] | cleaved RNA product abundance [2] |
| --- | --- | --- |
| ACAGACGAAGGAGCCGCAAAGAAGTTATTAATGGATGAATAATCCCTTAATATAAATATCTCTCACTTATTTAAA | 0.806 | 0.625 |
| ACAGACGAAGGAGCCGCAAAGAAGTTATTAATGGATGAATAATCCTTCAATATAAATATCTCTCACTTATTTAAA | 0.212 | 0.191 |
| ACAGACGAAGGAGCCGCAAAGAAGTTATTAATGGATGAATAATCGCTCAATATAAATATCTCTCACTTATTTAAA | 0.077 |  |
| ACAGACGAAGGAGCCGCAAAGAAGTTATTAATGGATGAATAATCTCTCAATATAAATATCTCTCACTTATTTAAA | 0.108 | 0.14 |
| ACAGACGAAGGAGCCGCAAAGAAGTTATTAATGGATGAATAATGCCTCAATATAAATATCTCTCACTTATTTAAA | 0.0612 | 0.105 |
| ACAGACGAAGGAGCCGCAAAGAAGTTATTAATGGATGAATAATTCATCAATATAAATATCTCTCACTTATTTAAA |  | 0.316 |
| ACAGACGAAGGAGCCGCAAAGAAGTTATTAATGGATGAATAATTCCTCAATATAAATATCTCTCACTTATTTAAA | 0.0864 | 0.12 |
| ACAGACGAAGGAGCCGCAAAGAAGTTATTAATGGATGAATACTCCCTCAATATAAATATCTCTCACTTATTTAAA |  | 0.0655 |
| ACAGACGAAGGAGCCGCAAAGAAGTTATTAATGGATGAATAGTCCCTCAATATAAATATCTCTCACTTATTTAAA | 0.0972 |  |
| ACAGACGAAGGAGCCGCAAAGAAGTTATTAATGGATGAATATTCCCTCAATATAAATATCTCTCACTTATTTAAA |  | 0.107 |
| ACAGACGAAGGAGCCGCAAAGAAGTTATTAATGGATGAATCATCCCTCAATATAAATATCTCTCACTTATTTAAA | 0.122 | 0.189 |
| ACAGACGAAGGAGCCGCAAAGAAGTTATTAATGGATGAATGATCCCTCAATATAAATATCTCTCACTTATTTAAA |  | 0.113 |
| ACAGACGAAGGAGCCGCAAAGAAGTTATTAATGGATGAATTATCCCTCAATATAAATATCTCTCACTTATTTAAA | 0.112 | 0.0827 |
| ACAGACGAAGGAGCCGCAAAGAAGTTATTAATGGATGACTAATCCCTCAATATAAATATCTCTCACTTATTTAAA | 0.0938 | 0.114 |
| ACAGACGAAGGAGCCGCAAAGAAGTTATTAATGGATGATTAATCCCTCAATATAAATATCTCTCACTTATTTAAA |  | 0.138 |
| ACAGACGAAGGAGCCGCAAAGAAGTTATTAATGGATGCATAATCCCTCAATATAAATATCTCTCACTTATTTAAA | 0.133 | 0.169 |
| ACAGACGAAGGAGCCGCAAAGAAGTTATTAATGGATGGATAATCCCTCAATATAAATATCTCTCACTTATTTAAA |  | 0.143 |
| ACAGACGAAGGAGCCGCAAAGAAGTTATTAATGGATGTATAATCCCTCAATATAAATATCTCTCACTTATTTAAA | 0.0434 | 0.211 |
| ACAGACGAAGGAGCCGCAAAGAAGTTATTAATGGATTAATAATCCCTCAATATAAATATCTCTCACTTATTTAAA | 0.149 | 0.242 |
| ACAGACGAAGGAGCCGCAAAGAAGTTATTAATGGCTGAATAATCCCTCAATATAAATATCTCTCACTTATTTAAA | 0.11 | 0.0644 |
| ACAGACGAAGGAGCCGCAAAGAAGTTATTAATGGGTGAATAATCCCTCAATATAAATATCTCTCACTTATTTAAA |  | 0.188 |
| ACAGACGAAGGAGCCGCAAAGAAGTTATTAATGGTTGAATAATCCCTCAATATAAATATCTCTCACTTATTTAAA | 0.107 | 0.121 |
| ACAGACGAAGGAGCCGCAAAGAAGTTATTAATGTATGAATAATCCCTCAATATAAATATCTCTCACTTATTTAAA | 0.101 | 0.1 |
| ACAGACGAAGGAGCCGCAAAGAAGTTATTAATTGATGAATAATCCCTCAATATAAATATCTCTCACTTATTTAAA | 0.0997 | 0.0964 |
| ACAGACGAAGGAGCCGCAAAGAAGTTATTACAGGATGAATAATCCCTCAATATAAATATCTCTCACTTATTTAAA |  | 0.165 |
| ACAGACGAAGGAGCCGCAAAGAAGTTATTACCGGATGAATAATCCCTCAATATAAATATCTCTCACTTATTTAAA |  | 0.155 |
| ACAGACGAAGGAGCCGCAAAGAAGTTATTACGAGATGAATAATCCCTCAATATAAATATCTCTCACTTATTTAAA | 0.104 | 0.113 |
| ACAGACGAAGGAGCCGCAAAGAAGTTATTACGCGATGAATAATCCCTCAATATAAATATCTCTCACTTATTTAAA |  | 0.0746 |

From the supplement of paper PMC11780869
